Experimental data: the DeepSol protein solubility set

Experiment: soluble on expression in E. coli; label from the status in PepcDB or PDB records

| Sequence | soluble on expression in E. coli |
| --- | --- |
| MNRYDRAITIFSPDGHLFQVEYAQEAVKKGSTAVGVRGKDCIVIGVEKKSIPALQDDRTIRKIHMIDDHVMLAFAGLSADARVLVDRARIECQSYKLTLEDPVTVAYISRYIANTKQRFTQSPGRRPFGISMLIGGFDHDGTPRLFKTEPSGAYYEYVANATGRGEKPVREYLEEQYSEENTVDEATTLKLVVKSLAQVVPPGSQNIEIAVMKKVNDELQQRVLSTEEIEALLKVVETERVAAEAEEAASKKK | not soluble |
| MAHHHHHHMKYRYDEKIHKGLYSEDNSTSMNNRYNNNESTYKMPKEILNRHEKIDLNSLPIDEEIINNLKIILNIEKLYMYQYIIYNEILKNSKHLLIYNKTGTGKTLSYLLPLIQKLINDKFDCNKKVLIITQNIYLCKQLYIYILSIYPTLNVCILSDEKESYNMNNNINNDIIVNIKRNNINPNDKENNDMCDEKYGIHFYLCTPNKLEYFIKNYKNKSRNDKNVMNNILNNINTIVIDEFDYIVEYRKNILNFFFKKDLFNEIHNNNNIRDKNRFNHDIFNKSNYNIYLFTANINEVIKKKIYEHLNGFVFFDFINGIKEHIQKQVAEQHNFNIDVLKNSENVVQLLNKENKNESLCNLNITHFVCKINSASKYKYVCYFLEEFFFHKQKISQKVYNDMVYDEYDKLNYRNMIPMEENKFVNNSEKEGNMKRSNADKINKCIIFANTKEEVEKLYEISLLKPHAVMMHSELLTIQKNENINLFKVGKKNVLITTDIISRGLDIDNVIFILNYSPPTSPNDYIHRSGRTGRGKEKGICLTMYHKYEYRNVDKIMKYTKNKFEVILCPKVEDVYKFSVDKLVENVMKIAPEKYEFFNEKSKELLKKHNTKIIAQILSILLKFDKKSFDVSLLSGKKNYVAVLIKDPFFEVIKNRDDIINIIKVITGNKIITTIIGDVAKCDEGFIVDISSSHVNKIISLFNSSNFEYKSKGLEINTLIELPPIIKEKKNIIRRKKKAPWIT | not soluble |
| MKLSPREADGYFARPDAGKTGILIHGADAMRIALKRQQIIAALLGPGGEEEMRLTRMPGAELRKDAAQLLDAVKAVGFFPGPRVVFVEDCPETSAPAVLTALEDWQPGDAQIVVTAGQLKPSSKIRKAFETHPNAYAAGIYDDPPSRAEIERMLSAAGIRDVPPEPMTVLSDLARDLGPGDFAQTMEKLALYKLGDTAPLVLEDIAACAPRSTEAALDDVLNVVAEGKEGEIGPLIRRLQAQGTTPVSLCIGATRHFRTLYTCASAPGGPSQGIGALRPPVFGPRRDRILNQAQRWGARRLEAALTVLTDTDLALRSAGQSAPQMALVERAMIRLAWLSRSRLEHHHHHH | not soluble |
| MGSDKIHHHHHHMWQDILNIHPDCIEDFINFDKLPGQAASLIAFAGMSYLQTEYKIGKTGKGNICLNNENNSGHVHYLISTHAGEGKIKLGNNEYLVKPGSIVLLPAGTPFLYELSGEYWEMCWLLLHDCSEYKFVHQLHPSVYSSINAERLYQTMSLIREFQHGESIYQSDIILRLVEVLVYQIAQTLNMGQQLTKQQQKFHSLIRRVNKQLQLSWTVKQLAAEMHMSEPHFFRLCKKEMGMTPIKLLTHTRLEYACYLLRYTQYNLDQIADTVGYGDSASFAHRFKKDYGLSPGRWRKEQINNFQSNDIENGEKR | not soluble |
| MRVYKPEDVPNVQLADSTRLVTDEAGLLSNAQEEVMNGRLRAIRSSHAVEFAVVTLPSIGDAPLEDFTLKLARQWGVGNEKNNNGLLLVLVLDQRRVRFETGYGLEGYLPDGLLSRIIHDRMIPHFRSGNYAEGLSEGVLAVQQVLDGSLEHHHHHH | soluble |
| MEHKIREEMRVLPSIDPQFEIERRVAFIKRKLTEARCKSLVLGISGGVDSTTCGRLAQLAVEELNQQHNTTEYQFIAVRLPYGEQKDEDEAQLALSFIRPTHSVSVNIKAGVDGLHAASHHALANTGLIPSDPAKVDFIKGNVKARARMVAQYEIAGYVGGLVLGTDHSAENITGFYTKFGDGACDLAPLFGLNKRQVRLLAKTLGAPEQLVYKTPTADLEELAPQKADEAALNLTYEQIDDFLEGKAVPAEVSQRLVAIYHATQHKRQPIPTIYD | soluble |
| MSLVDRNIGGSVTAPRIRVIEIDAFERDIRLRLPFRFGAATLEKAPQAFLRVRVEDEEGRTGLGATAEMMVPKWFDKNPAFTPAQNVDQLRTSIHTAAAASLEPSELATLFAAARLNEMETVRRLPGNPLAACFGPSLIARAALDAYCRLAGISFFEAVRGNLVGIGGPMLPGDIDADAASAMLAGLRPAGAISARHTIGLVDPITEGDIVDPVGDGLPESLEAVITRYGNRWFKIKLSGTIDADIDRLTRIAAVLDRLPDYRVTVDGNEQFGAPEQLAALLGQIEARPRLARLRAAIAFVEQPFSRAITMETPLGDLAAQLPFLIDESDDGDGAFAAARRLGYTGVSSKTCKGIYRSLMKAIRIRTGTAPGLFLSGEDLTCQAGLAVQQDLALVSLLGLSHVERNGHHYVAGMQGAPQAEKLRFAAAHPDLYEQGGDGPLLSIRDGRIAIASLGAVGYASGALPDFEAMTPMSEGHHHHHH | soluble |
| SALTAALSVCPLPSSSFFFAGFLPHKKGRKSRLEFLASIDSTIVLYESPHRIGRLMEEVKEHFPDAQVFAAREITKMHEEYVTGTPDELANHFTGQKQRGEFVVVVHPPDKH | not soluble |
| MSARSLYQDTAVAALRDDLALALCAAAHHGLGEGVCNHFSVALPGQAGAFLLNPRGLMWSEVRAEDIVLVDAAGNKLAGRHEVEPTAMFIHAAIHQVAGKACVLHTHMPYATALTLTEARMLDTTLSQNAMRFHGRVAADRRYNGLALDAAEGERIARAMDGADIAFLGNHGVVVCGERIDYAFDDLYYLERACCAQVLAESSGRPLVPLDAALAASVAGQARSERLQSTLFFEALRRALGLEHHHHHH | not soluble |
| MQKQKSFDKQTTKGKLYLVPTPIGNLEDMSIRCLNILKEATVIASEDTRNTQKLLNHFEITTPQISLHEHNYKERIPQLITRLLNGETIAQVSDAGMPSISDPGHELVTACLEEELAVIALPGPTAGMTALIASGLLPQPFTFYGFLPRKKKEQKDVLSALKEERPTQIFYESPYRIAKTVATFAEVYGQERPAVICRELTKLHEEYLRGTLGELTEYLAENTLKGECCLLVSGFTGEKETIAAMPAISLKEHVQVLMEEEGRSSKEAIKEVAKLRNVKKQEVYKEYHSI | not soluble |
| MGSDKIHHHHHHMGKLSLAAKITHVPSMYLSELPGRHHGCRAEAIRGHQAIGERCRALGVDTIVVADTHWLVNAGYHVNCNGHFAGVYTSNELPHFIRDMRYEYPGNPALGHLIAASANERGIGTRAHEIDSLELEYGTLVPMRYMNADQRFKVVSIAGWCMWHALDESRRFGEALRHAIDASDANVAFLASGSLSHRFNDNGSPEEAIHMISREFYRQVDLRVVELWKQGDFATFCKMLPEYNAHCHGEGGMHDTAMLLGLLGWDRYDKPVEIVTDYFASSGTGQINAIFPLP | not soluble |
| MGSDKIHHHHHHMTNEYEHLNAIQKIGLSILKEIIAICKRHDLTYYVYGGTLLGAIRHQGFIPWDDDVDIAMSRKDFEKLKQYQNEFPQYMFLDTIQQKGHQWTAAHVVDTRYKLEVGKGMKKATMSVWVDILIIDGVPNPGTFKYKIFSAAYLTARLLYKFSNFSNEVDLEKDRSAIETFFISFARITHIEKVINQHWAGCFIDWISRRYDLDKCEYGATLGGPQKMGETQPKYWFGKGKELLFEDIIVNGMEETENFLTKFYGPNYMTPPPLDKRNQHNVRLVEKIV | not soluble |
| FTSNKDERRWMVQCGSFRGAEQAETVRAQLAFEGFDSKITTNNGWNRVVIGPVKGKENADSTLNRLKMAGHTNCIRLAAGG | soluble |
| MKNTGTSVKFGESSTQALIRAAYRQVFGRDLYEGQRLSVAEIQLENGDISVREFIKRLAKSELFLKLYWAPHYVCKAIEYMHRRLLGRPTYGRQEMNQYFDIASKQGFYAVVEAMIDSKEYSDAFGEDTVPYERYLTPGGLEHHHHHH | not soluble |
| MAHHHHHHMLLGSFADFSVNGASTVDMPLAPSLEYVARMLRELPSVLHAEQWPTQFVCDSNAPLSGSGTELRNAEAITSSSSSVLERTLLGISPLSGTDAAVSQFLERLGGATTSLALRSLFDLCHADVWNLLGVAATSPISRLAALEKLAAAANGSASAPGPCRPVLDAETLEFKDILVWAWNRQYGCVGLRRLFFEMQVLFYRYAMNAQATSKQSRAGNGATLRDVCELWAVWRLSLQKWSAAFLAKLGTHEQTADVLDASTLRADACDLMRQHAIAVSGLAEVQRMALRVITKLQTVDAKGWFAVPAFDLVNVDFTSVRYWISSPVFARKSKREAYRSLCRTLERMVDSCVQKYGPTHAFSDVITTVRQQLVDVARAEGLL | not soluble |
| MPKVISQKEFNILSRTKERVNFQIVYTKQRNGLHKAAKEYFFKDKDFTIIEDTPDTPDQPDGPCITKGPKEPGGPEEPNGPDKPEDPKDPDTPDVSEGPKEQGGQKDPGGPDDPSEGKQKVSKPDKYVTHRELDEKLKDFATKADFKRVEDKVDVLFELQKTQGEQIKVQGEQIKAQGKQIEQLTETVKVQGEQIRAQGEQIKAQSEEIKEIKVEQKAQGEQIKELQVEQKAQGKTLQLILKTLEKMNERLEKLESKLEHHHHHH | not soluble |
| MKNLINWFEIPVTDMARAIAFYEQVMQISLRRETMDGADLAVFPYAEPGPGGALIKQDDVAPVAQGVVIYLHTADLLASIERVVLAGGKCVLEPMVPGDDIGTIALFIDSEGNRIGLHQPALEHHHHHH | not soluble |
| MGSDKIHHHHHHMKKIAILYPAHYEQSSGGAEIQILYLINACKQQNWEIHYIFEDKGTDIKNKENIVLHPLCKMKNYKFCGKGWFLYEKQILRELNAIKPDTIYTRIGSSWIGIATSYAKNHKVKHAHALASDSSVTRKLLGKPLYPLFSQIETYYINKGLVGADVIIAQNVFQQQMLSKRYGKESILVNQMTPSVDESCLQKKYNKIKIIWVANFKELKHPELFVQLAKDLKGHSDRIEMYMCGRSTSKYNNLLQDLNHIDYLNYLGSLDQEQVFDLMNEAHILVNTSEYEGFSNTFVQAWMRKVVVVSMNSNPSDILTSQGIGFLTPNMTNLVATIHKLIEHPEIISELGEKSYQYALENHDLNKNMKKIIEVL | not soluble |
| MPMKDVLSRIGIGSATVDTVLPTDSVRAGESVRAEVHVEGGSTDQNIDSVYFALETEYKSDEGYKDAIIDQWQLTEPFTIEAGEKRRFETTIDIPRETPVTTRSTAVEIETGLDISMAVDPGDEDYIEVEPTHRTQAVFDALDSLGFSLHASACEAAAGSLFTTSANFAQEFEFRPQRGEFTGAVDEVEIVPVFDDDRLTVYLEVDRSAGLLSEVTDADERHTKLTIEAPDPDAIEPRLAEAIRELS | not soluble |
| GPLGSPRYELGEELRDKIKQEPSFSNMVSAKKFYNKAIKDFTAPKEGAEVVSVKTHIMRPIDFMLMGLREEFNLYSEDGAHLSAPGTIRLLREKNLLPEEQIARIESVYNQAMSKRFELHAEHKKEHDEMPYSDAKAMLDEVAKIRELGVQRVTRIENLENAKKLWDNANSMLEKGNISGYLKAANELHKFMKEKNLKEDDLRPELSDKTISPKGYAILQSLWGAASDYSRAAATLTESTVEPGLVSAVNKMSAFFMDCKLSPNERATPDPDFKVGKSKILVGIMQFIKDVADPTSKIWMHNTKALMNHKIAAIQKLERSNNVNDETLESVLSSKGENLSEYLSYKYATKDEGREHRYTASTE | soluble |
